Measured values reported in US20120034232A1 (INNATE PHARMA, published 2012).

Legend:
[1] = molecular target: recombinant human His-tagged TLR3 extracellular domain recombinant protein (R&D systems, #1487-TR-050) (human) (UniProt O15455); experiment: SPR (Biacore T100), rhTLR3 immobilised on CM5 chip, antibody in solution, bivalent affinity, pH 5.6, mean of 2 or 3 experiments
[2] = molecular target: recombinant human His-tagged TLR3 extracellular domain recombinant protein (R&D systems, #1487-TR-050) (human) (UniProt O15455); experiment: SPR (Biacore T100), rhTLR3 immobilised on CM5 chip, antibody in solution, bivalent affinity, pH 7.2, mean of 2 or 3 experiments
[3] = molecular target: T1, human TLR3 expressed in cells (293T cells stably transfected with pUNO-hTLR3); endogenous TLR3 of human … (human, UniProt O15455 24-904); experiment: cell-based or functional assay
[4] = molecular target: T1, human TLR3 expressed in cells (293T …); experiment: cell-based or functional assay; remark: listed apart in the source
[5] = molecular target: T2, recombinant human His-tagged TLR3 extracellular domain recombinant protein (R&D systems, #1487-TR-050) (human, UniProt O15455 24-704); experiment: ELISA, His-tagged rec TLR3 (reference: His-tagged rec TLR4) on Ni-NTA plates, hybridoma supernatant
T2 construct: Bought protein; also called recombinant human TLR3; rhTLR3; not shown: His tag

Kd [1] [nM] | Kd [2] [nM] | IC50 of inhibition of luciferase expression, polyAU 100 µg/ml [3] [µg/mL] | IC50 of inhibition of luciferase expression in 293-huTLR3 cells, polyAU 300 µg/ml [4] [µg/mL] | ratio of DO obtained in TLR3 ELISA to DO obtained in TLR4 ELISA [5] | Molecule
9 | 45 | – | – | – | anti-TLR3 antibody TLR3.7 (eBiosciences)
– | – | < 5 | 1.83 | > 10 | anti-TLR3 monoclonal antibody 23C8 (antibody, V domains shown) VH: EVQLQQSGPELVKPGASVKISCKASGYSFTGYFMHWVKQSHVKSLEWIGRINPYNGATSYNQNFKDKASLTVDKSSSTSYMELHSLTSEDSAVYYCVRDDGGNYPFDYWGQGTTLTVS VL: DIQMTQSPASLSASVGETVTITCRASENIYSYLAWYQQKQGKSPQLLVYYAKTLAEGVPSRFSGSGTGTQFSLKINSLQPEDFGSYYCQHHYGTPYTFGGGTKLEIK
– | – | – | 5.56 | > 10 | anti-TLR3 monoclonal antibody 28F11 (antibody, V domains shown) VH: EVQLQQSGPELVKPGASVKISCKASGYSFTGYYIHWVKQSHVKSLEWIGRINPYYGATSYNQNFKDKANLTVDKSSSTAYMELHSLTSDDSAVYYCARSTKLGYLDYWGQGTTLTVS VL: DIQMTQSPASLSASVGETVTITCRASENIYSNLAWYQQKQGKSPQLLIYNAKTLAEGVPSRFSGSGSGTQYFLKINSLQPEDFGSYYCQHHYGTPFTFGGGTKLEIK
– | – | < 5 | – | – | anti-TLR3 monoclonal antibody 34A3 (antibody, V domains shown) VH: EIQLQQSGPELVKPGASVKVSCKASGYVFTTYSIYWVKQSHGKSLEWIGYIDPYNGDTSYNQKFKGKATLTVDKSSSTAYMHLNSLTSEDSTVYYCAREGNYYGYFDYWGQGTTLTVS VL: QIVLTQSPALMSASPGEKVTMTCSASSSVSYMFWYQQKPRSSPKPWIYLTSNLASGVPARFSGSGSGTSYSLTISSMEAEDAATYYCQQWTGNPPTFGGGTKLEIK
– | – | – | – | > 10 | anti-TLR3 monoclonal antibody 29H3 (antibody, V domains shown, also called 29H3.7; CNCM I-4187) VH: DVQLQESGPDLVKPSQSLSLTCTVTGYSITSGYSWHWIRQFLGNKLEWMGYIHYSGITNYNPSLRSRISFTRDTSKNQFFLQLNSVTTEDTATYYCARDGYYGMDYWGQGTSVTVS VL: DIVMTQSQKFMSTSVGDRVSITCKASQNVRTSVAWYQQKPGQSPKALIYLASNRHTGVPDRFTGSGSGTDFTLTVSNIQSEDLADYFCLQHWNYPYTFGGGTKLEIK
